This is an account of results in the supplement of paper PMC12042874.

± gives the uncertainty stated by the source.

The series can be described thus: amyloid nucleation score (Sup35N fusion, yeast selection) (log enrichment); library NNK2; higher = more nucleation; inactive = no reads after selection. The gist of the method:
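Nucleation score: DiMSum log enrichment of output over input reads, centred on the mode score of non-aggregating sequences. Only sequences with at least 100 input reads were kept. Reads came from Illumina sequencing of plasmid inserts before and after 7 days of growth at 30°C without adenine and uracil, in psi-negative yeast expressing Sup35N fused to peptides of 20 random codons after 24 hours of induction with 100 μM copper sulfate.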
Turning to CRRCTIGLISDRGVLAAEES, the amyloid nucleation score is -0.403 ± 0.63.

The substance CRRFSEYNVLCSDLNPIMVL returned an amyloid nucleation score of 0.404 ± 0.66.

For CRVFWKLKKRSIMHLPFDSG, the amyloid nucleation score is 1.32 ± 0.34.

In turn, CSALLYW returned an amyloid nucleation score of 1.29 ± 0.61.

Substance CSCMDRFL displayed an amyloid nucleation score of 1.41 ± 0.15.

Consider CSCNRLDYWAVNGRARRFKL, for which the amyloid nucleation score turned out to be 0.932 ± 0.81.

For CSFNKTALIAFNSNGGEYEH, the amyloid nucleation score was -2.66 ± 0.75.

For CSGHNRYYPRRGMDQHMLVF, the amyloid nucleation score came out at 0.266 ± 0.2.

Substance CSHITYQMCFILLNTAYFSH registered an amyloid nucleation score of -0.159 ± 1.1.

With CSIMFIG, the amyloid nucleation score stood at 0.858 ± 0.47.

Substance CSIPFSVWDCLSWYCKNIRI had an amyloid nucleation score of -1.46 ± 0.62.

As to CSITRLGSVHYLSRYIFV, the amyloid nucleation score amounted to 3.74 ± 0.083.

Regarding CSKRSQTKVITHICARGEVS, the amyloid nucleation score was 0.827 ± 0.28.

Take CSLLVTLWE: the amyloid nucleation score was 0.554 ± 0.23.

CSSFTQGCKCSF registered an amyloid nucleation score of -0.139 ± 0.37.

With CSSRNILDWKFVFFVCYFT, the amyloid nucleation score worked out at 3.41 ± 0.12.

Substance CTFPALSLPGPVSTQQSSGQ returned an amyloid nucleation score of 3.47 ± 0.06.

Consider CTIIFNLLLAD, for which the amyloid nucleation score was 7.396 ± 0.055.

CTLLTNITLFRGLHGTKFFC came in with an amyloid nucleation score of 2.43 ± 0.14.

Substance CTNMREFKGSLKAHIVLVVV gave an amyloid nucleation score of -0.479 ± 0.32.

With CTPDLLSVNFDVVVLQW, the amyloid nucleation score was -0.58 ± 0.55.

Regarding CTTFSFADIEFVMKRTRAIL, the amyloid nucleation score entry is “inactive”.

As for CVFPRFYIHDFSTLGTMYTL, the amyloid nucleation score was determined as 4.24 ± 0.12.

As to CVKKEIMLFAFDALKSLLGR, the amyloid nucleation score is -0.742 ± 1.1.

As for CVLHEPLYS, the amyloid nucleation score is -0.432 ± 0.3.

For CVLMAMNFRCLNSTETTLLG, the amyloid nucleation score entry was “inactive”.

The substance CVNVTLASFQVLNNPLHRSF returned an amyloid nucleation score of 4.896 ± 0.041.

CVPVYVKRIECHLPSGCTAV yielded an amyloid nucleation score of -0.345 ± 0.3.

As for CVRDTLIETFHSVFNPHRRV, the amyloid nucleation score turned out to be 0.983 ± 0.29.

CVSGNMYRLGVINW gave an amyloid nucleation score of 0.156 ± 0.29.

As for CWFGCVPDLTTGLGASCGRD, the amyloid nucleation score was 0.606 ± 0.2.

As to CWFSTTGYDPLEPSFNLVLR, the amyloid nucleation score is -1.58 ± 0.54.

Consider CWFYVMGLWHVLLLCWS, for which the amyloid nucleation score result is “inactive”.

Take CWKVREENRVVRCTHSYFLE: the amyloid nucleation score was -1.03 ± 0.55.

Regarding CWLEKLGGSRCFNFNDNKLP, the amyloid nucleation score is -1.19 ± 0.75.

With CWQMRGKLFHS, the amyloid nucleation score turned out to be 0.983 ± 0.14.

In turn, CWRRDNNRGCARRSGVAPAK gave an amyloid nucleation score of 0.495 ± 0.24.

On to CYHSQNDCHKVTWCFPYLAH, for which the amyloid nucleation score was -0.449 ± 0.44.

Substance CYLLN showed an amyloid nucleation score of -0.805 ± 0.44.

Substance CYNALWLFGNHAKTAHGLGH yielded an amyloid nucleation score of 0.709 ± 0.48.

As for CYRDMALGGCNVNVQLFVEA, the amyloid nucleation score was -0.049 ± 0.54.

CYRNAT registered an amyloid nucleation score of 0.475 ± 0.2.

With CYSLYLRS, the amyloid nucleation score was -0.018 ± 1.1.

The substance DAGDVRQVKEAGLMAGS came in with an amyloid nucleation score of 0.527 ± 0.21.

With DALVFSPCRALWTLLSVCEG, the amyloid nucleation score was found to be 0.896 ± 0.3.

Regarding DAVDFGISVSIHRSVREGWR, the amyloid nucleation score is 4.89 ± 0.11.

As for DAYQEKCLCFVHRCYAQGRC, the amyloid nucleation score was determined as 0.163 ± 0.39.

The substance DCHRNGSFRGKDGDVLYRSS showed an amyloid nucleation score of -0.397 ± 0.78.

In turn, DCHSMQFVVSFNT yielded an amyloid nucleation score of -0.705 ± 1.1.

Turning to DCNTCKDKPWNAINQPNKKA, the amyloid nucleation score was 0.121 ± 0.23.

Take DDERYDVPLWSFGVRYYISG: the amyloid nucleation score is -0.384 ± 0.54.

In turn, DDFRQVKREDWHWSLSAVLF registered an amyloid nucleation score of 0.36 ± 0.62.

The substance DDRIGSRVYVRVMNTKFFIK showed an amyloid nucleation score of 6.406 ± 0.045.

On to DDYVWCSYRLMFKSSHEALL, for which the amyloid nucleation score is -1.24 ± 1.1.

DEMVDAFYYSAM came in with an amyloid nucleation score of 0.35 ± 0.8.

As for DENFHAEGWRCFVYPFY, the amyloid nucleation score was -0.373 ± 0.27.

Consider DFCRQLWTKNKNVLRFICNS, for which the amyloid nucleation score is -0.342 ± 1.

For DFFRRFI, the amyloid nucleation score is -0.742 ± 0.48.

Take DFMIKSISVLFTVSISSNRV: the amyloid nucleation score was -1.69 ± 0.73.

Substance DFPRRWSWFITRESWGVWRT came in with an amyloid nucleation score of 1.65 ± 0.34.

As to DFTFWCEYSSSPVKKYVIDC, the amyloid nucleation score is 0.736 ± 0.18.

DFVIESLNMYYWCTRGVVKK: the amyloid nucleation score result is “inactive”.

DFWTARFGIGCCGVPCDRFF came in with an amyloid nucleation score of -0.507 ± 0.79.

Substance DFYACTWKDSCCGHEGRSAC yielded an amyloid nucleation score of 0.634 ± 0.43.

DGDLTLNWVRSRLPLKNFRG displayed an amyloid nucleation score of 0.144 ± 0.54.

DGEYPHQYSLEVLLLRLRH returned an amyloid nucleation score of 5.071 ± 0.049.

Regarding DGFRVCDMFGHAWGVENIPF, the amyloid nucleation score stood at 0.086 ± 0.31.

DGGNDWRTKYSGTPVVWGTV yielded an amyloid nucleation score of 1.73 ± 0.13.

For the substance DGSDREPKVSALWLHVRRTA, the amyloid nucleation score is 2.17 ± 0.13.

In the case of DGTYISKVNSRCVEDGARPR, the amyloid nucleation score came to 1.38 ± 0.34.

DGVCYSRVNYIPISMHVVYR had an amyloid nucleation score of 4.87 ± 0.08.

DGVSAFVCTFRDAVVRSAME: the amyloid nucleation score stood at 4.29 ± 0.045.

For DGYIELS, the amyloid nucleation score came to 0.302 ± 0.41.

On to DHFYWSNLGG, for which the amyloid nucleation score result was “inactive”.

On to DHMRHGCGYHLWFSGLSWRF, for which the amyloid nucleation score entry is “inactive”.

On to DHVYICSSFAPKSTAMLC, for which the amyloid nucleation score came out at 1.55 ± 0.38.

DIFALYFA registered an amyloid nucleation score of -1.16 ± 0.63.

Consider DIIFVDALMSVTSVQQNLH, for which the amyloid nucleation score was -0.388 ± 0.55.

In the case of DIMLAPHNSVDNGSRKEYGA, the amyloid nucleation score is 0.424 ± 0.64.

As to DIMYPYWMVR, the amyloid nucleation score was -0.667 ± 0.76.

As to DIPPKDLLGVFIDDEIREYC, the amyloid nucleation score was -0.436 ± 0.76.

In turn, DIRCDLGRVFN had an amyloid nucleation score of -0.17 ± 0.79.

Take DIRSRINMLRYTFF: the amyloid nucleation score result was “inactive”.

Consider DIYLLKIDRSGKCWPTTVDL, for which the amyloid nucleation score was -0.067 ± 0.41.

As for DKGWLANDNLDKDLHQIPYA, the amyloid nucleation score was found to be 0.515 ± 0.35.

For DKHYINASVSHEPSKNR, the amyloid nucleation score is -0.724 ± 0.46.

In the case of DKPTCETTV, the amyloid nucleation score was -0.659 ± 0.49.

For DKPVSTH, the amyloid nucleation score is -0.861 ± 1.

With DKRPALFVYSVCRVSSIR, the amyloid nucleation score is -1.26 ± 0.49.

With DKSAVMVFNRRYVPWFGIRY, the amyloid nucleation score result is “inactive”.

As for DKSSMYSSTMRPL, the amyloid nucleation score is 0.06 ± 0.65.

For DKVFDLTQMGFL, the amyloid nucleation score result was “inactive”.

Substance DKYGFSSVSGVTEDFVDGLM came in with an amyloid nucleation score of 0.736 ± 0.6.

Consider DLAPLLR, for which the amyloid nucleation score amounted to 0.132 ± 0.56.

Consider DLDFIKDLTAKLY, for which the amyloid nucleation score was -0.183 ± 1.

As for DLKRTFR, the amyloid nucleation score was -0.487 ± 0.79.

Substance DLLGIEPTTVCFYFDTDIRH displayed an amyloid nucleation score of 2.9 ± 0.07.

On to DLRRDQRATTERGRVPVVKH, for which the amyloid nucleation score turned out to be 4.817 ± 0.045.

DLTCRTSLSRGWKVLASSNG displayed an amyloid nucleation score of 0.413 ± 0.31.

On to DLTHWSANSTCSSCVEFHLR, for which the amyloid nucleation score was found to be 3.99 ± 0.086.

DLVYDCKGFCIRLLLG gave an amyloid nucleation score of -1.63 ± 1.

The substance DLYVLSWLYLGGEPNCVRF returned an amyloid nucleation score of 0.446 ± 0.26.

In the case of DMFRWNSYCSIVMLYCYAYD, the amyloid nucleation score is 4.62 ± 0.063.
